Measurements taken from patent US9862971B2 (BUNDESREPUBLIK DEUTSCHLAND, LETZTVERTRETEN DURCH DEN …, dated 2018).

B1: HcΔ14 (other)
chain: MPHPKGSRIVINREHLMIDRPYVLLAVLFVMFLSLIGLLAIAGIRLHRAAIYTAEIHKSLSTNLDVTNSIEHQVKDVLTPLFKIIGDEVGLRTPQRFTDLVKFISDKIKFLNPDREYDFRDLTWCINPPERIKLDYDQYCADVAAEELMNALVNSTLLETRTTNQFLAVSKGNCSGPTTIRGQFSNMSLSLLDLYLGRGYNVSSIVTMTSQGMYGGTYLVEKPNLSSKRSELSQLSMYRVFEVGVIRNPGLGAPVFHMTNYLEQPVSNDLSNCMVALGELKLAALCHGEDSITIPYQGSGKGVSFQLVKLGVWKSPTDMQSWVPLSTDDPVIDRLYLSSHRGVIADNQAKWAVPTTRTDDKLRMETCFQQACKGKIQALCENPEWAPLKDNRIPSYGVLSVDLSLTVELKIKIASGFGPLITHGSGMDLYKSNHNNVYWLTIPPMKNLALGVINTLEWIPRFKVSPYLFTVPIKEAGGDCHAPTYLPAEVDGDVKLSSNLVILPGQDLQYVLATYDTSRVEHAVVYYVYSPSRSFSYFYPFRLPIKGVPIELQVECFTWDQKLWCRHFCVLADSESGGHITHSGMVGMGVSCTVTREDGTNRR
B2: HcΔ18 (other)
chain: MGSRIVINREHLMIDRPYVLLAVLFVMFLSLIGLLAIAGIRLHRAAIYTAEIHKSLSTNLDVTNSIEHQVKDVLTPLFKIIGDEVGLRTPQRFTDLVKFISDKIKFLNPDREYDFRDLTWCINPPERIKLDYDQYCADVAAEELMNALVNSTLLETRTTNQFLAVSKGNCSGPTTIRGQFSNMSLSLLDLYLGRGYNVSSIVTMTSQGMYGGTYLVEKPNLSSKRSELSQLSMYRVFEVGVIRNPGLGAPVFHMTNYLEQPVSNDLSNCMVALGELKLAALCHGEDSITIPYQGSGKGVSFQLVKLGVWKSPTDMQSWVPLSTDDPVIDRLYLSSHRGVIADNQAKWAVPTTRTDDKLRMETCFQQACKGKIQALCENPEWAPLKDNRIPSYGVLSVDLSLTVELKIKIASGFGPLITHGSGMDLYKSNHNNVYWLTIPPMKNLALGVINTLEWIPRFKVSPYLFTVPIKEAGGDCHAPTYLPAEVDGDVKLSSNLVILPGQDLQYVLATYDTSRVEHAVVYYVYSPSRSFSYFYPFRLPIKGVPIELQVECFTWDQKLWCRHFCVLADSESGGHITHSGMVGMGVSCTVTREDGTNRR
B3: HcΔ19 (other)
chain: MSRIVINREHLMIDRPYVLLAVLFVMFLSLIGLLAIAGIRLHRAAIYTAEIHKSLSTNLDVTNSIEHQVKDVLTPLFKIIGDEVGLRTPQRFTDLVKFISDKIKFLNPDREYDFRDLTWCINPPERIKLDYDQYCADVAAEELMNALVNSTLLETRTTNQFLAVSKGNCSGPTTIRGQFSNMSLSLLDLYLGRGYNVSSIVTMTSQGMYGGTYLVEKPNLSSKRSELSQLSMYRVFEVGVIRNPGLGAPVFHMTNYLEQPVSNDLSNCMVALGELKLAALCHGEDSITIPYQGSGKGVSFQLVKLGVWKSPTDMQSWVPLSTDDPVIDRLYLSSHRGVIADNQAKWAVPTTRTDDKLRMETCFQQACKGKIQALCENPEWAPLKDNRIPSYGVLSVDLSLTVELKIKIASGFGPLITHGSGMDLYKSNHNNVYWLTIPPMKNLALGVINTLEWIPRFKVSPYLFTVPIKEAGGDCHAPTYLPAEVDGDVKLSSNLVILPGQDLQYVLATYDTSRVEHAVVYYVYSPSRSFSYFYPFRLPIKGVPIELQVECFTWDQKLWCRHFCVLADSESGGHITHSGMVGMGVSCTVTREDGTNRR
B4: HcΔ24+4A (other)
chain: MAAAANREHLMIDRPYVLLAVLFVMFLSLIGLLAIAGIRLHRAAIYTAEIHKSLSTNLDVTNSIEHQVKDVLTPLFKIIGDEVGLRTPQRFTDLVKFISDKIKFLNPDREYDFRDLTWCINPPERIKLDYDQYCADVAAEELMNALVNSTLLETRTTNQFLAVSKGNCSGPTTIRGQFSNMSLSLLDLYLGRGYNVSSIVTMTSQGMYGGTYLVEKPNLSSKRSELSQLSMYRVFEVGVIRNPGLGAPVFHMTNYLEQPVSNDLSNCMVALGELKLAALCHGEDSITIPYQGSGKGVSFQLVKLGVWKSPTDMQSWVPLSTDDPVIDRLYLSSHRGVIADNQAKWAVPTTRTDDKLRMETCFQQACKGKIQALCENPEWAPLKDNRIPSYGVLSVDLSLTVELKIKIASGFGPLITHGSGMDLYKSNHNNVYWLTIPPMKNLALGVINTLEWIPRFKVSPYLFTVPIKEAGGDCHAPTYLPAEVDGDVKLSSNLVILPGQDLQYVLATYDTSRVEHAVVYYVYSPSRSFSYFYPFRLPIKGVPIELQVECFTWDQKLWCRHFCVLADSESGGHITHSGMVGMGVSCTVTREDGTNRR
B5: HmutscFvCD20Δ19 (other)
chain: MSRIVINREHLMIDRPYVLLAVLFVMFLSLIGLLAIAGIRLHRAAIYTAEIHKSLSTNLDVTNSIEHQVKDVLTPLFKIIGDEVGLRTPQRFTDLVKFISDKIKFLNPDREYDFRDLTWCINPPERIKLDYDQYCADVAAEELMNALVNSTLLETRTTNQFLAVSKGNCSGPTTIRGQFSNMSLSLLDLYLGRGYNVSSIVTMTSQGMYGGTYLVEKPNLSSKRSELSQLSMYRVFEVGVIRNPGLGAPVFHMTNYLEQPVSNDLSNCMVALGELKLAALCHGEDSITIPYQGSGKGVSFQLVKLGVWKSPTDMQSWVPLSTDDPVIDRLYLSSHRGVIADNQAKWAVPTTRTDDKLRMETCFQQACKGKIQALCENPEWAPLKDNRIPSYGVLSVDLSLTVELKIKIASGFGPLITHGSGMDLYKSNHNNVYWLTIPPMKNLALGVINTLEWIPRFKVSPALFTVPIKEAGGDCHAPTYLPAEVDGDVKLSSNLVILPGQDLQYVLATYDTSAVEHAVVYYVYSPSRLSSYFYPFRLPIKGVPIELQVECFTWDQKLWCRHFCVLADSESGGHITHSGMVGMGVSCTVTREDGTNAAQPAIEGRMAQVQLVQSGAELVKPGASVKMSCKASGYTFTSYNMHWVKQTPGQGLEWIGAIYPGNGDTSYNQKFKGKATLTADKSSSTAYMQLSSLTSEDSAVYYCARAQLRPNYWYFDVWGAGTTVTVSKISGGGGSGGGGSGGGGSGGSSDIVLSQSPAILSASPGEKVTMTCRASSSVSYMHWYQQKPGSSPKPWIYATSNLASGVPARFSGSGSGTSYSLTISRVEAEDAATYYCQQWISNPPTFGAGTKLELKAAARGSHHHHHH
B6: HcΔ21 (other)
chain: MIVINREHLMIDRPYVLLAVLFVMFLSLIGLLAIAGIRLHRAAIYTAEIHKSLSTNLDVTNSIEHQVKDVLTPLFKIIGDEVGLRTPQRFTDLVKFISDKIKFLNPDREYDFRDLTWCINPPERIKLDYDQYCADVAAEELMNALVNSTLLETRTTNQFLAVSKGNCSGPTTIRGQFSNMSLSLLDLYLGRGYNVSSIVTMTSQGMYGGTYLVEKPNLSSKRSELSQLSMYRVFEVGVIRNPGLGAPVFHMTNYLEQPVSNDLSNCMVALGELKLAALCHGEDSITIPYQGSGKGVSFQLVKLGVWKSPTDMQSWVPLSTDDPVIDRLYLSSHRGVIADNQAKWAVPTTRTDDKLRMETCFQQACKGKIQALCENPEWAPLKDNRIPSYGVLSVDLSLTVELKIKIASGFGPLITHGSGMDLYKSNHNNVYWLTIPPMKNLALGVINTLEWIPRFKVSPYLFTVPIKEAGGDCHAPTYLPAEVDGDVKLSSNLVILPGQDLQYVLATYDTSRVEHAVVYYVYSPSRSFSYFYPFRLPIKGVPIELQVECFTWDQKLWCRHFCVLADSESGGHITHSGMVGMGVSCTVTREDGTNRR
B7: HcΔ22 (other)
chain: MVINREHLMIDRPYVLLAVLFVMFLSLIGLLAIAGIRLHRAAIYTAEIHKSLSTNLDVTNSIEHQVKDVLTPLFKIIGDEVGLRTPQRFTDLVKFISDKIKFLNPDREYDFRDLTWCINPPERIKLDYDQYCADVAAEELMNALVNSTLLETRTTNQFLAVSKGNCSGPTTIRGQFSNMSLSLLDLYLGRGYNVSSIVTMTSQGMYGGTYLVEKPNLSSKRSELSQLSMYRVFEVGVIRNPGLGAPVFHMTNYLEQPVSNDLSNCMVALGELKLAALCHGEDSITIPYQGSGKGVSFQLVKLGVWKSPTDMQSWVPLSTDDPVIDRLYLSSHRGVIADNQAKWAVPTTRTDDKLRMETCFQQACKGKIQALCENPEWAPLKDNRIPSYGVLSVDLSLTVELKIKIASGFGPLITHGSGMDLYKSNHNNVYWLTIPPMKNLALGVINTLEWIPRFKVSPYLFTVPIKEAGGDCHAPTYLPAEVDGDVKLSSNLVILPGQDLQYVLATYDTSRVEHAVVYYVYSPSRSFSYFYPFRLPIKGVPIELQVECFTWDQKLWCRHFCVLADSESGGHITHSGMVGMGVSCTVTREDGTNRR
B8: HcΔ23 (other)
chain: MINREHLMIDRPYVLLAVLFVMFLSLIGLLAIAGIRLHRAAIYTAEIHKSLSTNLDVTNSIEHQVKDVLTPLFKIIGDEVGLRTPQRFTDLVKFISDKIKFLNPDREYDFRDLTWCINPPERIKLDYDQYCADVAAEELMNALVNSTLLETRTTNQFLAVSKGNCSGPTTIRGQFSNMSLSLLDLYLGRGYNVSSIVTMTSQGMYGGTYLVEKPNLSSKRSELSQLSMYRVFEVGVIRNPGLGAPVFHMTNYLEQPVSNDLSNCMVALGELKLAALCHGEDSITIPYQGSGKGVSFQLVKLGVWKSPTDMQSWVPLSTDDPVIDRLYLSSHRGVIADNQAKWAVPTTRTDDKLRMETCFQQACKGKIQALCENPEWAPLKDNRIPSYGVLSVDLSLTVELKIKIASGFGPLITHGSGMDLYKSNHNNVYWLTIPPMKNLALGVINTLEWIPRFKVSPYLFTVPIKEAGGDCHAPTYLPAEVDGDVKLSSNLVILPGQDLQYVLATYDTSRVEHAVVYYVYSPSRSFSYFYPFRLPIKGVPIELQVECFTWDQKLWCRHFCVLADSESGGHITHSGMVGMGVSCTVTREDGTNRR
B9: HcΔ24 (other)
chain: MNREHLMIDRPYVLLAVLFVMFLSLIGLLAIAGIRLHRAAIYTAEIHKSLSTNLDVTNSIEHQVKDVLTPLFKIIGDEVGLRTPQRFTDLVKFISDKIKFLNPDREYDFRDLTWCINPPERIKLDYDQYCADVAAEELMNALVNSTLLETRTTNQFLAVSKGNCSGPTTIRGQFSNMSLSLLDLYLGRGYNVSSIVTMTSQGMYGGTYLVEKPNLSSKRSELSQLSMYRVFEVGVIRNPGLGAPVFHMTNYLEQPVSNDLSNCMVALGELKLAALCHGEDSITIPYQGSGKGVSFQLVKLGVWKSPTDMQSWVPLSTDDPVIDRLYLSSHRGVIADNQAKWAVPTTRTDDKLRMETCFQQACKGKIQALCENPEWAPLKDNRIPSYGVLSVDLSLTVELKIKIASGFGPLITHGSGMDLYKSNHNNVYWLTIPPMKNLALGVINTLEWIPRFKVSPYLFTVPIKEAGGDCHAPTYLPAEVDGDVKLSSNLVILPGQDLQYVLATYDTSRVEHAVVYYVYSPSRSFSYFYPFRLPIKGVPIELQVECFTWDQKLWCRHFCVLADSESGGHITHSGMVGMGVSCTVTREDGTNRR

Target: T1, CD46 (human, UniProt P15529)
Assay: cell-based or functional assay

In order of rising “titer [t.u./ml] of HIV-1 vector particles on 293T cells, concentrated supernatant” value:
1. B1  2900 t.u./ml
2. B3  200000 t.u./ml
3. B2  1e+06 t.u./ml
4. B4  1.6e+06 t.u./ml

Going from B1 to B2, the “titer [t.u./ml] of HIV-1 vector particles on U-87MG cells, concentrated supernatant” value rises from 3420 t.u./ml to at least 1e+06 t.u./ml.

B3 and B4 cannot be ordered by “titer [t.u./ml] of HIV-1 vector particles on U-87MG cells, concentrated supernatant” value: at least 1e+06 t.u./ml for the first, at least 1e+06 t.u./ml for the second.

Target: human CD20 (human, UniProt P11836)
Assay: cell-based or functional assay

B5 was tested, and the “titer [t.u./ml] of HIV-1 vector particles on HT1080-CD20 cells, concentrated supernatant” value was 1.32e+06 t.u./ml.

Target: T1, CD46
Assay: cell-based or functional assay
Remark: another data set of the same source

In order of rising “titer [t.u./ml] of HIV-1 vector particles on HT1080 cells, not concentrated supernatant” value:
1. B9  88 t.u./ml
2. B8  130 t.u./ml
3. B7  140 t.u./ml
4. B6  1500 t.u./ml
